PMC10605006, “RNA structure and multiple weak interactions balance the interplay between RNA binding and phase separation of SARS-CoV-2 nucleocapsid”

How the values were obtained:
NTD = NTD (SARS-CoV-2, UniProt P0DTC9 47-174); experiment: fluorescence anisotropy; 1:1 fit; Anisotropy: 50 mM Na phosphate pH 6.5, 150 mM NaCl, 1 mM NaN3, 50 nM RNA; EMSA: 20 mM Tris pH 7.5, 150 mM NaCl, 1 mM DTT, room temp, 25 uM RNA; NTD NMR: 20 mM Na phosphate pH 6.5, 20 mM NaCl, 25 C; CTD NMR: 20 mM Na phosphate pH 6, 200 mM NaCl; details: protein: recombinant; tags: none (tag removed by bdSENP1); label: 5',6-carboxyfluorescein (6-FAM) for anisotropy; unlabeled for NMR; single strand, no self-pairing
[1] = target: FL-N (nucleocapsid, full length) (SARS-CoV-2, UniProt P0DTC9 1-419); experiment: fluorescence anisotropy; fit with locked stoichiometry n=4 RNA:FL-N; authors call it an estimate; Anisotropy: 50 mM Na phosphate pH 6.5, 150 mM NaCl, 1 mM NaN3, 50 nM RNA; EMSA: 20 mM Tris pH 7.5, 150 mM NaCl, 1 mM DTT, room temp, 25 uM RNA; NTD NMR: 20 mM Na phosphate pH 6.5, 20 mM NaCl, 25 C; CTD NMR: 20 mM Na phosphate pH 6, 200 mM NaCl; details: protein: recombinant; tags: His-tag (TALON, imidazole eluted); chain copies: 2; label: 5',6-carboxyfluorescein (6-FAM) for anisotropy; unlabeled for NMR; single strand, no self-pairing

## GGCACAUGGACGUC (ssRNA) [ss-14mer]
NTD
  Kd: 22 µM
[1]
  Kd: ~0.08 µM
